Non-standard residues stand in square brackets, D forms with d. No end group written: not given here. *: point of attachment. Biotin = O=C1N[C@H]2[C@H](CS[C@H]2CCCCC(=O)*)N1; Dnp = O=[N+]([O-])c1ccc(*)c([N+](=O)[O-])c1; Mca = COc1ccc2c(CC(=O)*)cc(=O)oc2c1; Ahx = NCCCCCC(=O)O

Test [1] concerns cleavage of F-Substrate M (f-Sub M) by rhBACE1. Put plainly: Fluorometric (FRET) assay for cleavage of F-Substrate M by rhBACE. The test is classed as biochemical, human. The following applies: cleavage of f-Sub M by rhBACE1 (FIG. 29A). The source says:
This assay system utilizes fluorescence resonance energy transfer (FRET) technology. Substrate M was synthesized with two fluorophores, a fluorescent donor and a proprietary quenching acceptor (purchased from a commercial source, R&D Systems). […] Upon cleavage of substrate by β-secretase, the fluorophore is separated from the quenching group, restoring the full fluorescence yield of donor.
Substrate labeled with fluorophores will be called F-Substrate M (R&D Systems). Recombinant human β-secretase will be called rhBACE (recombinant human β-site APP cleavage enzyme) (purchased from R&D systems).
F-Substrate M (20 μM) was preincubated with varying concentrations of complementary peptides in assay buffer (0.1 M NaOAc, pH 4.0) for 1 hr at RT. rhBACE (70 nM) in assay buffer was added. Cleavage by rhBACE was detected by reading emitted fluorescence level.
In this assay system, fluorescence resonance energy transfer (FRET) technology was utilized. Swedish mutant APP substrate (f-Sub M) with a fluorescent donor and a proprietary quenching acceptor (7-methoxycoumarin-4-acetyl-SEVNLDAEFRK(Dnp)-RR-NH2) was purchased from R&D systems, Inc (MN, USA). […] Upon cleavage of substrate by rhBACE1 (R&D Systems, Inc., MN, USA), the fluorescence donor is separated from the quenching group, restoring the full fluorescence yield of the donor. f-Sub M (10 μM) was pre-incubated with HC peptide in assay buffer (0.1 M NaOAc, pH 4.0) for 2 h at RT. After pre-incubation, substrate and HC peptide mixture in assay buffer was transferred to FluoroNunc™ 96 well white plate (Nunc, Roskilde, Denmark), and rhBACE1 (70 nM) was added. Time-dependent emission of fluorescence (excitation at 320 nm, emission at 405 nm) was monitored in a Molecular Devices SpectraMax Gemini EM fluorescence reader (CA, USA) for 1 h at 37° C. All assays were carried out in duplicate.

The subject of test [2] is CTFβ accumulation (cleavage of APP by BACE1) in HEK 293-APP cells. Put plainly: Level of CTFβ in HEK 293-APP cells (immunoblot, 6E10). Type of test: cell-based, human. As to conditions: HEK293-APP cells, 9 h. Here is the method:
When the confluency of the cells reached 90%, the cells were washed with PBS once, and HC peptide in serum free DMEM was added to the cells. […] The lysed cells were centrifuged at 12000×g for 10 min at 4° C. The protein in the supernatant was determined by bicinchoninic acid assay (Pierce, IL, USA) [Smith, P. K., Krohn, R. I., Hermanson, G. T., Mallia, A. K., Gartner, F. H., Provenzano, M. D., Fujimoto, E. K., Goeke, N. M., Olson, B. J., and Klenk, D. C. […] After electrophoresis, the proteins in the gel were electrophoretically transferred onto a polyvinylidene difluoride (PVDF) membrane at 100 mA for 80 min. The blotted membrane was fixed with 0.2% glutaraldehyde in PBS for 45 min at RT and treated for 5 min in boiling PBS. CTFβ (the C-terminal fragment of APP generated by BACE1) was detected by treatment of the membrane with 0.5 μg/ml of anti-Aβ Nterminal 6E10 antibody (Signetlabs, Inc., MA, USA) followed by incubation with 0.2 μg/ml of anti-mouse antibody coupled with HRP (Amersham Biosciences Ltd. Uppsala, Sweden). The developed film was scanned and the density of CTFβ band was determined by Scion Image Program (Scion Corporation, MD, USA).

Test [3] relates to production of Aβ in HEK 293-APP cells. Put plainly: Measurement of Aβ level in culture media of HEK293-APP cells (Aβ1-40 immunoassay). Type of test: cell-based, human. The method, then:
Human embryonic kidney (HEK) 293 cells stably transformed with the gene for APP695 (HEK 293-APP) were used for studies on the inhibitory activity of HC peptides. HEK 293-APP cells were generously supplied by Dr. T W Kim (Columbia University, NY, USA). HEK 293-APP cells were cultured in Dulbecco's Modified Eagle's Medium (DMEM) (Invitrogen, CA, USA) with 10% fetal bovine serum (HyClone, UT, USA) and 300 μg/ml of geneticin (Invitrogen, CA, USA) in a humidified atmosphere of 5% CO2, 95% air at 37° C. Cells were subcultured after trypsinization, and the medium was changed every 2-3 days.
Most of the APP processing including the cleavage by BACE1 occurs in endoplasmic reticulum (ER)/Golgi complex and endosome. It was investigated if c-Sub M and the deletion series would inhibit processing of APP in the cells. For this examination, HEK293 cells transformed with wild type human APP genes for our investigation was chosen.
The culture media from the peptide-treated cells (see above) was harvested and centrifuged at 3500×g for 10 min. Amount of Aβ in the supernatant was determined with human Aβ1-40 immunoassay kits (Signal Select™, BioSource, CA, USA) according to the instruction provided by the company.

Test [4] has as its system APP processing in HEK293-APP cells. Put plainly: APP inhibitor activity on HEK293-APP cells (βCTF Western blot). The test is classed as cell-based, human. The following applies: γ-secretase inhibitor and cholesterol added. Here is the method: In the neuronal cells of the brain, APP is processed by α-secretase or β-secretase. To investigate the effects of the inhibitors on the cell, a cell based assay system was developed as described in FIG. 10. C-terminal fragment of APP remaining on the cell membrane was detected by Western blot. The resulting C-terminal fragments, αCTF or βCTF are further processed by γ-secretase. However, if the cells are treated with the γ-secretase inhibitor, this processing is blocked. As a result, αCTF or βCTF accumulate in the cell. If β-secretase inhibitor or APP inhibitor is added, this processing is blocked and βCTF disappears.
In addition, γ-secretase inhibitor and cholesterol were added to the cells to increase βCTF level. Commercially available peptide-based β-secretase inhibitor was included as control (Lane 6, FIG. 11). To detect the N-terminal fragment of β-amyloid which is a product of APP processing, 6E10 antibody was employed. […] Recently, it has been reported that the commercially available peptide-based inhibitor had to be linked to an oligoarginine transporter peptide to have inhibitory activity against cells. Therefore, mimetic approach is adopted to produce cell permeable analogs. (Chang et al. J. Neurochemistry 2004; 89:1409-1416).
After confirming the ability of the oligo-arginine coupled APP inhibitors to enter the cells, the inhibitors were applied to HEK293-APP cells overexpressing APP to test their inhibitory activities on APP processing. […] This inhibitor started to show significant inhibitory activity beginning from 0.1 μM (lower panel).

For test [5], the system named is Substrate M (Sub M, SEVNLDAEFR; β-secretase cleavage site of APPsw). Put plainly: Binding of biotin-labeled Substrate M to immobilized complementary (HC) peptides. The following applies: substrate not specified. Here is the method:
(§1) Complementary peptides (0.2, 2, 20, and 200 μM) were dissolved in phosphate buffered saline (PBS) (pH 7.4) and fixed to microtiter wells for 5 hr at 37° C. The wells were blocked with blocking buffer (3% BSA/PBS) for 1 hr at 37° C. Either N-terminally biotinylated Substrate W or M (20 μM) in blocking buffer was added and incubated for overnight at 4° C. Streptavidin-horseradish peroxidase in blocking buffer was added to detect resulting bound substrates. The plate was incubated for 2 hr at room temperature (RT), followed by addition of 3,3′,5,5′-tetramethyl-benzidine (TMB) as substrate for horseradish peroxidase for color reaction.
(§2) Reacti-Bind™ maleic anhydride-activated polystyrene plate (Pierce, IL, USA) was coated with 50 μl of HC peptide (200 μM in distilled water) by chemical coupling for 3 h at room temperature (RT) and washed three times with phosphate buffered saline (PBS) containing 0.05% tween 20 (PBST). The plate was blocked with blocking buffer (0.5% gelatin in PBS) for 1 h at RT. After discarding blocking buffer, biotinylated BACE1 substrates (200 μM) in blocking buffer was applied on the plate and incubated for 2.5 h at RT. Each well was washed three times with PBST. The bound biotinylated BACE1 substrates were detected by incubation with streptavidin-horseradish peroxidase (Str-HRP, 125 mU/ml in blocking buffer) for 2 h at RT. Color reaction was carried out with 50 μl of 3,3′,5,5′-Tetramethylbenzidine Liquid Substrate (Sigma-Aldrich, MO, USA). After stopping the reaction by addition of an equal volume of 1 N HCl, absorbance at 450 nm was read in an automated ELISA reader (EL 312e, Bio-Tek Instruments, VT, USA). All assays were carried out in duplicate.

Test [6] deals with T1, N-terminally biotinylated Substrate M.
T1 construct: also called bio-Sub M; Sub M
T1 peptide: Biotin-SEVNLDAEFR
Put plainly: plate assay: complementary peptide on wells, biotinylated substrate, streptavidin-HRP. The method, then:
as §1

In test [7] the target is T2, N-terminally biotinylated Substrate W.
T2 construct: also called bio-Sub W; Sub W
T2 peptide: Biotin-SEVKMDAEFR
Put plainly: plate assay: HC peptide chemically coupled to wells, bio-Sub W, streptavidin-HRP (FIG. 27). Here is the method:
as §2
Thereafter, it was investigated if the c-Sub M and the deletions series bind to wild type Sub W. The results will give us important information on possibility of inhibition of wild type of APP cleavage in cells by the HC peptides derived from Sub M in view of the poor cleavage of Sub W by rhBACE1 in vitro. […] Thus, there is possibility that the HC peptides for Sub M (c-Sub M series) or its peptidomimetics will inhibit the cleavage of wild type APP by BACE1 in cells.

In test [8] the target is T3, recombinant human β-secretase (rhBACE1) (human, UniProt P56817 22-457, limits assumed).
T3 construct: Bought reagent; also called recombinant human β-site APP cleavage enzyme
Put plainly: ELISA, c-Sub M immobilized. (In an ELISA, binding on a coated surface is turned into a signal by an enzyme label.)

For test [9], the target named is T4, f-Sub M (7-methoxycoumarin-4-acetyl-SEVNLDAEFRK(Dnp)-RR-NH2).
T4 peptide: Mca-SEVNLDAEFRK(Dnp)RR-NH2
Put plainly: cell-based or functional assay.

For test [10], the target named is T1, N-terminally biotinylated Substrate M. Put plainly: plate assay: HC peptide chemically coupled to wells, bio-Sub M, streptavidin-HRP (Table 2). The method, then:
as §2
The binding and inhibitory activities of these peptides were determined as described in Experimental Procedures. The concentration of HC peptides and f-Sub M was 0.5 mM and 10 μM, respectively. All the experimental data for the binding activity as well as for the inhibitory activity were within 5% error range.

The target is the same in test [11]. Put plainly: plate assay: HC peptide chemically coupled to wells, bio-Sub M, streptavidin-HRP (Table 1). Here is the method: as §2
The HC peptides were chemically coupled to the surface of a microtiter plate to minimize the different coating efficiency of peptides, and the Sub M labeled with biotin (bio-Sub M) was applied. bio-Sub M bound to c-Sub but not to Sub M-c (FIG. 25A). To test inhibitory activity of HC peptide, FRET assay system was used as described above. […]

Test [12] has as its target T2, N-terminally biotinylated Substrate W. Put plainly: plate assay: complementary peptide on wells, biotinylated substrate, streptavidin-HRP. The method, then:
as §1

T3 sequence (P56817 22-457 limits assumed): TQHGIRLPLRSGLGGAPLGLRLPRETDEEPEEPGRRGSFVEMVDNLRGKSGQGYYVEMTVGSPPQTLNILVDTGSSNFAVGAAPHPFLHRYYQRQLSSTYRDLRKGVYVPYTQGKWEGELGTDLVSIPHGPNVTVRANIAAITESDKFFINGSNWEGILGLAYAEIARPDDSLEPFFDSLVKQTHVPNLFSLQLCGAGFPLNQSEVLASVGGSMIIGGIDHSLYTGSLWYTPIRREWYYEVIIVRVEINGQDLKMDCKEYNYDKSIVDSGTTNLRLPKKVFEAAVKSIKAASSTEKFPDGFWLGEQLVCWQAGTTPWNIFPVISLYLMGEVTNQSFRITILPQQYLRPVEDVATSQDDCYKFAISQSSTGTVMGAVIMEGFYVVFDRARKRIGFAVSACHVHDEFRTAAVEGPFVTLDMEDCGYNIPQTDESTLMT

As for “NH2-(CH2)5-CO-Cys-Ile-Gln-Ile-His-Phe-NH2 ([Ahx]CIQIHF-NH2; N-terminus assumed; SMILES CC[C@H](C)[C@H](NC(=O)[C@H](CCC(N)=O)NC(=O)[C@@H](NC(=O)[C@H](CS)NC(=O)CCCCCN)[C@@H](C)CC)C(=O)N[C@@H](Cc1c[nH]cn1)C(=O)N[C@@H](Cc1ccccc1)C(N)=O) [AHX-c-Sub M ΔN3C1]”, the “in vitro inhibitory activity relative to non-modified c-Sub M ΔN3C1” value in [1] is “by half”. Moreover, the “accumulation of the cleavage product CTFβ” value in test [2] was “inhibited the accumulation of both forms of CTFβs”. Moreover, in test [3] (6.25 μM, 9 h), the “reduction of amount of Aβ released” value is given as “about 70%”. Also, the “amount of Aβ released into the culture medium” value in test [3] (increasing concentrations) is recorded as “reduced in a concentration dependent manner”.

Regarding “SEFC (also: cyclic, mode of cyclisation not given here) [c-Sub MΔC6]”, in test [4], the “inhibitory activity on APP processing (βCTF)” value is on record as “none of the inhibitors tested showed inhibitory activity”. The “absorbance in binding test” value in [5] is “high absorbance”.

For “β-secretase inhibitor IV [reference compound]”, the “accumulation of the cleavage product CTFβ” value in test [2] is “inhibited accumulation of only the nonphosphorylated form of CTFβ”. For the same molecule, in test [3] (2 μM), the “inhibition of production of Aβ” value is reported as “about 90%”.

B1: c-Sub M (peptide)
peptide: SEFCIQIHFR-NH2
notes: Hydropathic complementary decapeptide to Sub M, read 5'-3'
For the molecule B1, the binding result in [6] is “binds”. In addition, the “fold binding to Sub W relative to c-Sub W” value in [7] stood at 4 fold. Besides, in test [8], the binding result is listed as “no binding”. In addition, in test [9], the “inhibition of cleavage of f-Sub M by rhBACE1 (FRET), HC peptide 100 fold over substrate” value is ~50% and the “inhibitory activity for the cleavage of f-Sub M by rhBACE1 (FRET; HC peptide 1 mM, f-Sub M 10 µM)” value was determined as 45%.

B2: c-Sub M ΔC1 (peptide)
peptide: SEFCIQIHF-NH2
Consider B2, for which, in test [10], the binding result is “binds”. In test [9], the “inhibitory activity for the cleavage of f-Sub M by rhBACE1 (FRET; HC peptide 1 mM, f-Sub M 10 µM)” value stood at 90%.

B3: Sub W-c (peptide)
peptide: RLHFYLRLKA-NH2
notes: Hydropathic complementary decapeptide to Sub W, read 3'-5'
As for B3, the binding result in test [11] is listed as “binds”.

B4: c-Sub W (peptide)
peptide: SEFCIHLHFR-NH2
notes: Hydropathic complementary decapeptide to Sub W, read 5'-3'
As for B4, the binding result in test [12] and in [11] was “binds” in each case.

The values are drawn from US20090176711A1, “INHIBITORS OF AMYLOID PRECURSOR PROTEIN PROCESSING” (priority 2008, published 2009).
